Source: the FLAb antibody collection (doi:10.7554/elife.23156)

B1: scFv; the commonest letter at each place (parent)
chain 1: EVKLDETGGGLVQPGRPMKLSCVASGFTFSDYWMNWVRQSPEKGLEWVAQIRNKPYNYETYYSDSVKGRFTISRDDSKSSVYLQMNNLRVEDMGIYYCTGSYYGMDYWGQGTSVTVS
chain 2: DVVMTQTPLSLPVSLGDQASISCRSSQSLVHSNGNTYLRWYLQKPGQSPKVLIYKVSNRFSGVPDRFSGSGSGTDFTLKISRVEAEDLGVYFCSQSTHVPWTFGGGTKLEIK

Columns and labels:
fluorescein = variants of: B1; test: Kd (Tite-Seq); conditions: with fluorescein; format: scFv 4-4-20, heavy + light
[1] = variants of: B1; test: yeast surface expression (ratio to wild type); higher = more expressed; conditions: format: scFv 4-4-20, heavy + light

Variant | Kd (fluorescein) [µM] | yeast surface expression [1]
chain 1 W108N G109P | ≥ 10 | 0.396
chain 1 M105P D106E | ≥ 10 | 0.7
chain 1 S30C V37D | 2.01 | 1.73
chain 1 T28V D31M | 0.00444 | 0.587
chain 1 D31Y W33F V37H | ≥ 10 | 0.788
chain 1 N35L V37P | ≥ 10 | 0.67
chain 1 Y103M G109W | ≥ 10 | 0.221
chain 1 Y103M G109Y | ≥ 10 | 0.265
chain 1 N35L W36R | ≥ 10 | 0.352
chain 1 M34Y V37M | 0.0107 | 0.807
chain 1 Y102V D106N | 0.00215 | 0.889
chain 1 S101D Y107I | ≥ 10 | 1.02
chain 1 Y107R G109S | 2.47 | 0.665
chain 1 D106Y G109Q | ≥ 10 | 0.171
chain 1 Y103Q M105G | ≥ 10 | 0.906
chain 1 W33V N35Q | ≥ 10 | 0.772
chain 1 G100R Y103V W108N | ≥ 10 | 0.274
chain 1 D31T V37D | ≥ 10 | 0.511
chain 1 D31T V37S | ≥ 10 | 0.269
chain 1 G104A M105P | ≥ 10 | 0.375
chain 1 G109E | ≥ 10 | 0.504
chain 1 G104V M105R G109W | ≥ 10 | 0.425
chain 1 W33Y N35R | ≥ 10 | 0.524
chain 1 T28E S30V | 0.0015 | 0.928

Variant | Kd (fluorescein) [µM] | yeast surface expression [1]
chain 1 D31V W33D | ≥ 10 | 0.821
chain 1 F29C S30C | ≥ 10 | 0.693
chain 1 G100I G109A | ≥ 10 | 0.429
chain 1 F29Q | 0.0119 | 0.989
chain 1 F29N | 5.24 | 1.04
chain 1 F29I | 0.00325 | 1.01
chain 1 F29G | ≥ 10 | 0.925
chain 1 G100P G104I | ≥ 10 | 0.337
chain 1 D31P M34V | ≥ 10 | 0.733
chain 1 D106I G109C | ≥ 10 | 0.203
chain 1 G104Y W108L | ≥ 10 | 0.212
chain 1 F29T M34S | ≥ 10 | 0.649
chain 1 D31A N35T V37S | ≥ 10 | 0.281
chain 1 S30I W33Y V37P | 7.33 | 0.0571
chain 1 F29D V37A | ≥ 10 | 0.907
chain 1 Y103F | 0.000763 | 1.06
chain 1 Y103E | 0.0166 | 0.857
chain 1 W33H | ≥ 10 | 0.765
chain 1 W33V | ≥ 10 | 0.944
chain 1 D31L W33D | ≥ 10 | 0.81
chain 1 G100N Y102N | ≥ 10 | 0.643
chain 1 G100N Y102Q | ≥ 10 | 0.746
chain 1 Y32K | 1.67 | 0.804
chain 1 Y32P | ≥ 10 | 0.908

Variant | Kd (fluorescein) [µM] | yeast surface expression [1]
chain 1 Y32D | ≥ 10 | 1.04
chain 1 Y32R | 0.064 | 0.954
chain 1 Y32H | 0.0265 | 1.03
chain 1 Y32V | ≥ 10 | 1.02
chain 1 M105I W108G | ≥ 10 | 0.529
chain 1 Y102V Y103G Y107F | 6.27 | 1.12
chain 1 Y103N G104Q | ≥ 10 | 0.766
chain 1 Y103N G104P | ≥ 10 | 0.478
chain 1 F29K W33R | 0.0692 | 0.639
chain 1 S30L W33E | ≥ 10 | 0.645
chain 1 G100W S101P | ≥ 10 | 0.197
chain 1 Y103M W108M | 0.000333 | 1.13
chain 1 G100A Y103K G109T | 3.2 | 0.753
chain 1 D31P N35F | 0.0302 | 0.944
chain 1 G104P Y107M G109M | ≥ 10 | 0.257
chain 1 S101M Y103A | ≥ 10 | 0.658
chain 1 D31A W33L | ≥ 10 | 0.534
chain 1 S101L | ≥ 10 | 0.497
chain 1 S101A | 0.000724 | 0.836
chain 1 S101F | ≥ 10 | 0.596
chain 1 S101C | ≥ 10 | 0.832
chain 1 M105Q D106Q | ≥ 10 | 1.01
chain 1 T28Y D31W V37T | 0.00638 | 0.808
chain 1 F29L M34D | ≥ 10 | 0.656

Variant | Kd (fluorescein) [µM] | yeast surface expression [1]
chain 1 W33N V37Q | ≥ 10 | 0.415
chain 1 D31V W36G | ≥ 10 | 2.19
chain 1 Y102Q Y103T | ≥ 10 | 1.05
chain 1 Y102Q Y103A | 8.13 | 0.994
chain 1 T28A Y32T | ≥ 10 | 1.2
chain 1 T28A Y32K | 3.55 | 1.02
chain 1 T28A W33I | ≥ 10 | 1.15
chain 1 S101W M105Q | ≥ 10 | 0.517
chain 1 F29H N35V | 0.00251 | 2.76
chain 1 W33C W36G | ≥ 10 | 1.12
chain 1 M105F W108L | 0.00175 | 0.451
chain 1 F29V M34E | ≥ 10 | 0.715
chain 1 D31T W33E | ≥ 10 | 0.544
chain 1 T28A F29Y | 0.0015 | 1.06
chain 1 F29A W33I | ≥ 10 | 0.852
chain 1 T28N W33M | ≥ 10 | 1.01
chain 1 Y103W D106T | ≥ 10 | 0.875
chain 1 Y103W D106K | ≥ 10 | 0.245
chain 1 G100R S101H | ≥ 10 | 0.282
chain 1 D31Y W33R | ≥ 10 | 0.325
chain 1 N35I W36N | ≥ 10 | 0.743
chain 1 F29I W33A W36Y | ≥ 10 | 0.454
chain 1 Y107E G109E | ≥ 10 | 0.288
chain 1 Y107A G109L | ≥ 10 | 0.218

Variant | Kd (fluorescein) [µM] | yeast surface expression [1]
chain 1 D106T G109R | ≥ 10 | 0.26
chain 1 G104H G109H | ≥ 10 | 0.765
chain 1 S30K W33L | ≥ 10 | 0.749
chain 1 G104H Y107M | ≥ 10 | 0.478
chain 1 G104E G109C | ≥ 10 | 0.21
chain 1 D106W G109A | ≥ 10 | 0.168
chain 1 F29M W33M | ≥ 10 | 0.873
chain 1 F29N S30K | 0.228 | 1.13
chain 1 G104S W108R | ≥ 10 | 0.26
chain 1 M34I V37Q | 0.00184 | 0.474
chain 1 S101C M105I | ≥ 10 | 0.826
chain 1 G100I S101E | ≥ 10 | 0.652
chain 1 M34I | 0.00273 | 0.873
chain 1 G104H | ≥ 10 | 0.716
chain 1 G104M | ≥ 10 | 0.571
chain 1 Y102A M105N | 0.0113 | 1.14
chain 1 G100W G104I | ≥ 10 | 0.359
chain 1 Y103K G109W | ≥ 10 | 0.123
chain 1 D31K W33I M34N | ≥ 10 | 0.395
chain 1 G104F W108F | ≥ 10 | 0.387
